Consider one substance from patent publication US20150086622A1, “GROWTH ENHANCEMENT OF INFANTS” (NUTRINIA LTD., priority 2012, published 2015).

In one series the test system is newborn miniature pigs. The conditions noted are these: oral administration of 85 mU/ml; cited from earlier work.
The subject of series [1] is low birth weight infants. As to the kind of experiment: Clinical studies: safety / side effects of insulin enriched formula. The series is classed as in vivo, human. The protocol: Phase I, multi center, non-randomized, open label, single group study to assess the safety of insulin enriched formula on low birth weight infants was conducted in Rabin Medical Center and Laniado Hospital, Israel. The possible effect of the insulin enriched formula on growth of low birth weight infants, born on term (at least 34 weeks of gestation) was also examined in this study. Parents of eligible infants, who met the study criteria, were invited to participate in the study following signing on Informed Consent Form (ICF). From study day 1, the infants received the insulin enriched infant formula ([…], Israel). They were fed with the formula for the first 4 months without the addition of complementary feed. The infants' gender, family origin, gestational age at birth, maternal medications, maternal age, chronic diseases in the family and the infant's condition upon enrollment were recorded. […] At study day 1 and 2, and at 1, 4, 8, 12, 16 and 24 weeks the parents of the infant were asked to come to the neonatal ward for follow up examinations. During the study, the infant's weight, length, head circumference, glucose blood levels, blood count, blood fat, blood chemistry, blood amino acids, insulin antibodies, and serum levels were recorder, as well as food consumption, vomiting, regurgitation and stools frequency were measured and assessed. Infants were to be withdrawn from the study if any serious adverse event or any deterioration in the infant clinical condition had occurred. They were followed up on possible side effects and efficacy measures until 6 months of age. […] A multicenter, double blind, randomized study for studying the effect of the insulin enriched infant formula on the growth of low weight infants was planned to take place in Israel in 2005 (headed by Prof Sirota, Schneider Hospital). Due to low recruitment rate (only 8 premature infants), the study was terminated.

Series [2] relates to preterm infants. The conditions noted are these: oral, 4 to 28 days of age, 4 U/kg/day; cited from earlier work.
Series [3] concerns preterm infants. As to the kind of experiment: Randomized placebo controlled study: gastrointestinal maturation (days to complete enteral feeding). Conditions: all infants; control 7.9; P-value=0.2085. The series is classed as in vivo, human. As to the method: A Multi-center, two arms, randomized, double-blinded placebo controlled study was conducted to evaluate the effect of insulin-enriched infant formula on preterm infants. In this study, the population of infants included also babies having extremely low birth weight (inclusion criteria included babies weighing over 750 grams). The insulin was given at a concentration range which is mimicking colostrums concentration (at 400 μU/ml. The study primary goal was to determine whether insulin supplement to the basic preterm oral formula enhances gastrointestinal maturation. The gastrointestinal maturation was evaluated by the ability of the premature infants to achieve complete enteral feeds (150-160 ml/kg/day). The infants were hospitalized in the neonatal hospital ward in the same manner as preterm infants whose parents elected not to participate in the study. The infants were randomly assigned to one of two treatment groups: the study product-InsuMealTM as a test group and Placebo supplement as a control group. The parents, the medical team treating the infants and the study monitor were blinded to the treatment arm. From study day 1, the infants in the test group received the InsuMealTM additive mixed with the ready to feed (RTF) preterm […] formula and the control group received a placebo supplement mixed with the same RTF preterm […] formula. […]

In series [4] the test system is low birth weight infants. As to the kind of experiment: Phase I open label single group clinical study of insulin enriched formula: growth in weight, length, head circumference. The conditions noted are these: at 6 months; CDC growth tables. The series is classed as in vivo, human. As to the method: The effect of insulin enriched formula on low birth weight full term infant was examined. Inclusion criteria for participating in the study included: healthy infants 34-42 weeks gestation (“term born infants”); birth weight above 1,650 g, typically between 1750 gram and 2500 gram; no major congenital malformation or any other illness sign; chronological age under 240 hours; mother is not willing to breastfeed the baby during the study period and signed an informed consent. Infant with a high index of suspect for infection before enrolment, maternal diabetes, and medications given until day 1 of the study were excluded. Observed results regarding weight, length, and head circumference were compared to expected values which were obtained from the CDC growth reference tables (ibid) according to the infants' gender, gestational age and percentile of birth weight (BW). Interpolation or extrapolation was used to determine the percentile and the expected gain of each infant. The expected values are specific to the percentile measure at birth. The percentile of each BW was evaluated according to the gender, gestational age and multiplicity (singleton or twin) using published tables for Israel (Dolberg S. et al., IMAJ, 7, 2005, 311-314). No such data were available with respect to the percentiles of length and of head circumference. It was therefore assumed that the BW percentile of each infant is applicable to each of the other two growth measures. […] The infants' gender, family origin, gestational age at birth, maternal medications, maternal age, chronic diseases in the family and the infant's condition upon enrollment were recorded. […] During the study, the infant's weight, length, head circumference, glucose blood levels, blood count, blood fat, blood chemistry, blood amino acids, insulin antibodies, and serum levels were recorder, as well as food consumption, vomiting, regurgitation and stools frequency were measured and assessed. The possible effect of the insulin enriched formula on growth was evaluated with respect to gain in weight, length, and head circumference. […]

Series [5] relates to preterm infants. Kind of series: Randomized placebo controlled study: number of hospitalization days to discharge. The series is classed as in vivo, human. The protocol: A Multi-center, two arms, randomized, double-blinded placebo controlled study was conducted to evaluate the effect of insulin-enriched infant formula on preterm infants. In this study, the population of infants included also babies having extremely low birth weight (inclusion criteria included babies weighing over 750 grams). The insulin was given at a concentration range which is mimicking colostrums concentration (at 400 μU/ml. The study primary goal was to determine whether insulin supplement to the basic preterm oral formula enhances gastrointestinal maturation. The gastrointestinal maturation was evaluated by the ability of the premature infants to achieve complete enteral feeds (150-160 ml/kg/day). The infants were hospitalized in the neonatal hospital ward in the same manner as preterm infants whose parents elected not to participate in the study. The infants were randomly assigned to one of two treatment groups: the study product-InsuMealTM as a test group and Placebo supplement as a control group. […] From study day 1, the infants in the test group received the InsuMealTM additive mixed with the ready to feed (RTF) preterm […] formula and the control group received a placebo supplement mixed with the same RTF preterm […] formula. Infant maturation and growth was further assessed by the number of hospitalization days required until the preterm infant could be discharged.

Entries after “also recorded” stand apart in the source; their conditions may differ.

In the case of “insulin: polypeptide hormone; human insulin administered orally to infants, within infant formula”, the “Intestine ileal mass and lactase activity” value with newborn miniature pigs is listed as “increased”. Also, the Adverse events entry in the series on low birth weight infants [1] (follow up to 6 months) is on record as “No deleterious effects; also recorded: no adverse events were observed”. In addition, in the series with low birth weight infants [1] (human, in vivo), the Anti-insulin antibodies entry is given as “did not stimulate the production of anti-insulin antibodies” and the Hypoglycemia entry was “did not cause hypoglycemia”. In the series with preterm infants [2], the “Hypoglycaemia or other adverse effects” value is given as “without inducing hypoglycaemia or other adverse effects” and the Lactase activity entry is recorded as “increased lactase activity”. Besides, the “Number of days to achieve complete enteral feeding (>=150 ml/Kg/day), Mean” value in the series with preterm infants [3] is recorded as 6.4 days. In addition, in the series with low birth weight infants [4], the “Effect on head circumference relative to the expected growth” value came out at 17.6%, the “Effect on length relative to the expected growth” value was found to be 8.1% and the “Effect on weight relative to the expected growth” value stood at 18.1%. Further, the “Number of days to discharge, Mean” value in the series on preterm infants [5] (all infants, control 33.6, P-value=0.2192) was 28.8 days. Also, the “Number of days to discharge, Mean” value with preterm infants [5] (infant birth weight < 1300 gr, control 47.0, P value=0.0447) is given as 35.8 days.
